According to article PMC8892353 (Proceedings of the National Academy of Sciences of the …, 2022):
Numbering of substitutions follows the chain as printed. Numbers in names are those of the source. Values belong to the molecule of their own block, whether it stands above or below them.

Legend:
COA7 = COA7 (Homo sapiens, UniProt Q96BR5); experiment: biochemical
AUC = target: the molecule itself; experiment: AUC

- Kd (COA7): 1400 ± 280 nM
Molecule: C=CC1=C(C)C2=Cc3c(C=C)c(C)c4[n]3[Fe]([Cl])[n]3c(c(C)c(CCC(=O)O)c3=CC3=NC(=C4)C(C)=C3CCC(=O)O)=CC1=N2 [hemin]

B1: Recombinant human COA7 (natural protein)
chain: MAGMVDFQDEEQVKSFLENMEVECNYHCYHEKDPDGCYRLVDYLEGIRKNFDEAAKVLKFNCEENQHSDSCYKLGAYYVTGKGGLTQDLKAAARCFLMACEKPGKKSIAACHNVGLLAHDGQVNEDGQPDLGKARDYYTRACDGGYTSSCFNLSAMFLQGAPGFPKDMDLACKYSMKACDLGHIWACANASRMYKLGDGVDKDEAKAEVLKNRAQQLHKEQQKGVQPLTFG
- stoichiometry N (AUC): 2

B2: Recombinant Y137C COA7 (^Y137CCOA7) (natural protein, human)
chain: B1 chain with Y137C
- stoichiometry N (AUC): 2
